Laboratory results from article PMC7587433.
pKd: −log10 of the molar value.

molecular target: rFN12-14 (recombinant fibronectin type III repeats 12 to 14); test: SPR; Biacore T200, C1 sensor chip; rFN12-14 immobilised (~870 RU); rF-, rFG-repeat or multiple repeats in HBS-EP injected at 40 μl/min; double referencing

In order of falling pKd:
1. rFG-repeat (recombinant 19th FG-repeat of Embp, aa 6777 to 6902) (domain or fragment)  6.89
2. r2FG-repeats (recombinant Embp fragment, aa 6777 to 7028) (domain or fragment)  6.30
3. r2F-repeats (recombinant Embp fragment, aa 2569 to 2908) (domain or fragment)  5.00
4. r4F-repeats (recombinant Embp fragment, aa 2569 to 3248) (domain or fragment)  4.70
5. rF-repeat (recombinant first F-repeat of Embp, aa 2569 to 2738) (domain or fragment)  4.54

molecular target: fibronectin (full-length human Fn, Sigma-Aldrich) (human) (UniProt P02751); test: SPR; Biacore T200, C1 sensor chip, 25°C, HBS-EP (10 mM HEPES pH 7.4, 150 mM NaCl, 3 mM EDTA, 0.005% Surfactant P20); Fn immobilised by amine coupling (~1,000 RU); rF- and rFG-repeats injected at 40 μl/min

In order of rising pKd:
1. rF-repeat (recombinant first F-repeat of Embp, aa 2569 to 2738)  5.40
2. rFG-repeat (recombinant 19th FG-repeat of Embp, aa 6777 to 6902) (domain or fragment)  8.80
